From patent publication US20160331811A1, “NON-AGGLOMERATING BIOCONJUGATES OF AMYLIN-MIMETIC COMPOUNDS AND POLYETHYLENEGLYCOL” (UNIVERSIDADE FEDERAL DO RIO DE JANEIRO, priority 2013, published 2016)
Ends that are not written are not given here.

Columns and labels:
[1] = Amyloid aggregation assay with thioflavin T (ThT); format: physicochemical; details: PBS pH 7.4, 37° C.
Description: Purified monoPEGylated human amylin of example 1 was re-suspended in DMSO and diluted to PBS pH 7.4 and allowed to incubate at 37° C. Samples were evaluated for amyloid aggregates by using the amyloid chromogenic probe thioflavin T (ThT).

[2] = Pharmacokinetics in swiss mice, plasma human amylin by ELISA; format: in vivo; details: 10 μg peptide in 100 uL saline, FIG. 6
Description: The pharmacokinetics of the monoPEGylated human amylin product were characterized in vivo in swiss mice. Mice were housed in a temperature-controlled room with a light-dark cycle of 12 h. Water and food were available ad libitum. Two groups were formed, control (free human amylin, not PEGylated) and PEGylated amylin. Animals received 100 uL of saline containing 10 μg of human amylin peptides, either free human amylin or purified monoPEGylated human amylin. Blood was collected retro-orbitally from mice (n=3 mice for each time interval), and the plasma was subjected to ELISA assay for human amylin as provided by the manufacturer (Millipore, Cat Number EZHA-52K—http://www.millipore.com/catalogue/item/ezha-52k).

[3] = target: T1, RAMP3 (Homo sapiens, UniProt O60896); test: RAMP-FITC fluorescence anisotropy coreceptor binding assay (RAMP3); details: fluorescence anisotropy of RAMP-FITC, duplicate assays, FIG. 3 and 4
T1 sequence (O60896 24-148): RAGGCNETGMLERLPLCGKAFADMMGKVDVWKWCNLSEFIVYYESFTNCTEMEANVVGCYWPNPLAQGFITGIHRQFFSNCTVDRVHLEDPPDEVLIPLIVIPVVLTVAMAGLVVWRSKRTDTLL
Description: (§1) Purified monoPEGylated human amylin was assayed for RAMP2 and RAMP3 coreceptor binding interaction.
(§2) RAMP (receptor activity modifying protein) was labeled with fluorescein isothiocianate for 1 h at 4° C. in PBS ([…]) pH 7.4, and purified by size exclusion chromatography (SEC) in Sepharose G25 (agarose-based chromatography media, provided by the US company GE HealthCare) using the same buffer. Labelling was confirmed by UV absorbance measurements at A280 and A490, allowing estimation of coupling efficiency, relying on about 0.5 fluorescein/RAMP molecule.

[4] = target: RAMP2 (Homo sapiens, UniProt O60895); test: RAMP-FITC fluorescence anisotropy coreceptor binding assay (RAMP2); details: fluorescence anisotropy of RAMP-FITC, duplicate assays, FIG. 3 and 4
Chain of RAMP2 (O60895 43-175, species assumed): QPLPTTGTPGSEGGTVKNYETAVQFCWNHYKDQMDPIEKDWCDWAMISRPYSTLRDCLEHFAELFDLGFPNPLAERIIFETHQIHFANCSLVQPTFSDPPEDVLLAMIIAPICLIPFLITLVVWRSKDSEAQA
Description: as §1, §2

Substance	amyloid aggregation (ThT) ([1]; 3 days, FIG. 5)	plasma decay / duration of stability in plasma [2]	apparent binding affinity for coreceptor RAMP3 [3]	apparent binding affinity for coreceptor RAMP2 [4]	amyloid aggregation (ThT) ([1]; day 7, FIG. 5)
free human amylin: 37-aminoacid amyloid polypeptide of the Langerhans islets, CAS RN: 106602-62-4; not PEGylated control (KCNTATCATQRLANFLVHSSNNFGAILSSTNVGSNTY; not fully specified (C-terminus, bridges); cysteine pairing not given here)	almost all free human amylin was aggregated in amyloid form	fast plasma decay	–	–	–
HEWL: unrelated protein hen egg white lisozyme used as a control for non-specific binding	–	–	non-specific binding	non-specific binding	–
monoPEGylated human amylin: monoconjugate of human amylin and mPEG, purified by C18 reversed phase, peak at 9 Kda (example 1) (KCNTATCATQRLANFLVHSSNNFGAILSSTNVGSNTY; not fully specified (C-terminus, bridges); cysteine pairing not given here; also: mono-mPEG conjugate, site not given here; UniProt P10997 34-70, looked up)	–	longer duration of stability in plasma	–	–	no signs of aggregation
